Results published in US20090191228A1.

Key:
[1] = target: dH5-0 (recombinant hemagglutinin 5 of H5N1 strain A/Vietnam/1203/04, stock as supplied by Protein Sciences) (influenza virus H5N1 strain A/Vietnam/1203/04)
[2] = target: dH5-0 (recombinant hemagglutinin 5 of H5N1 strain A/Vietnam/1203/04, stock as supplied by Protein Sciences) (influenza virus H5N1 strain A/Vietnam/1203/04); assay: ELISA, immobilized H5 forms, Fn F4-5 in solution; normalized to cdH5-0

| Substance | Bmax [1] | Kd [1] [nM] | Normalized affinity, kD (%) [2] [%] |
| --- | --- | --- | --- |
| tissue type plasminogen activator (tPA) (from UniProt P00750 36-562) (enzyme) | 0.32 | 96 |  |
| fourth and fifth finger domain of fibronectin (Fn F4-5) (from UniProt P02751 183-275) |  |  | 103 |
